Experimental data as given in US7563760 (GENETICS INSTITUTE, dated 2009).

T1: chimeric protein comprising the extracellular domain of human E-selectin and the Fc portion of human IgG1 … (human, UniProt P16581 22-556)
T1 construct: extracellular domain; Built analogously to LEC-γ1; also called soluble E-selectin chimera; immobilized E-selectin; not shown: Fc portion of human IgG1
T1 sequence (looked up): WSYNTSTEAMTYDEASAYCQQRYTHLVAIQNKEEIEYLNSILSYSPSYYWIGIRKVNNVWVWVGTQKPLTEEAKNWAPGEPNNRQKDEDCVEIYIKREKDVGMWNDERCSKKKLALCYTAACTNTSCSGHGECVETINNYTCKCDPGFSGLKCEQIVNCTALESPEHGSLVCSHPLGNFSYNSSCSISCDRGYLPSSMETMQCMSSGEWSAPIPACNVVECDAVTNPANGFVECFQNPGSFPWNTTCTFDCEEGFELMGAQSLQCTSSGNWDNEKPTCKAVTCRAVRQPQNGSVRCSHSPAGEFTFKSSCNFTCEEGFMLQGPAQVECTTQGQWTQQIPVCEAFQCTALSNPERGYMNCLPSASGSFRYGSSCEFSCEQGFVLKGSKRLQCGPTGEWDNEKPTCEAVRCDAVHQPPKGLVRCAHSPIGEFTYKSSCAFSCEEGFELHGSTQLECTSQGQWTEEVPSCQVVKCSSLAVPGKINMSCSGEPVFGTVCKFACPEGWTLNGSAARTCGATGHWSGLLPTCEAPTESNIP

T2: P-selectin expressed on the surface of CHO cells (CHO:P-selectin cell line) (UniProt P16109 42-830, limits assumed)
T2 construct: whole, on cells; also called P-selectin expressing CHO cells
T2 sequence (looked up): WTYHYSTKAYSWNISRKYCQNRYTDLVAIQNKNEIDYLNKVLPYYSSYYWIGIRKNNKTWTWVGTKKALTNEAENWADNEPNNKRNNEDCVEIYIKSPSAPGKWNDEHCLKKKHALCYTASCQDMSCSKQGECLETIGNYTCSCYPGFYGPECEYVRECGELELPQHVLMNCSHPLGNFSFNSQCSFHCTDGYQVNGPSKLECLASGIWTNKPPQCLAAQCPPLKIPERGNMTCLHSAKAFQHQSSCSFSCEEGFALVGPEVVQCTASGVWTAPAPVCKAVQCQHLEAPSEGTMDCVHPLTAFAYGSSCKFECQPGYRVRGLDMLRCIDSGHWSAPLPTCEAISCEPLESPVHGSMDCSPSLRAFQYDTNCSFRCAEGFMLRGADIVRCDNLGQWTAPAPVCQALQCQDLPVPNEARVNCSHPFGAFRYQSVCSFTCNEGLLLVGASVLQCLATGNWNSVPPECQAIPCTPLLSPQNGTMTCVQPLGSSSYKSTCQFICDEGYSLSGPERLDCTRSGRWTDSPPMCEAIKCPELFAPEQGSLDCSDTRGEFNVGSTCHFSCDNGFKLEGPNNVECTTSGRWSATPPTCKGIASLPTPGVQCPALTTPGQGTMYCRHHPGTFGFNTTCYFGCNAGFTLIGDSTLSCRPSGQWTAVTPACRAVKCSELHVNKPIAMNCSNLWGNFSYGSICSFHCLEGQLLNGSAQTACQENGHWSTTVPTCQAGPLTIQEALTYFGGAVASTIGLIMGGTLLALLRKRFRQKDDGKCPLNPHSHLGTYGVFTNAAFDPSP

T3: E-selectin expressed on CHO cells (CHO:E-selectin) (UniProt P16581 22-610, limits assumed)
T3 construct: whole, on cells; also called E-selectin expressing CHO cells; CHO cells which express E-selectin
T3 sequence (looked up): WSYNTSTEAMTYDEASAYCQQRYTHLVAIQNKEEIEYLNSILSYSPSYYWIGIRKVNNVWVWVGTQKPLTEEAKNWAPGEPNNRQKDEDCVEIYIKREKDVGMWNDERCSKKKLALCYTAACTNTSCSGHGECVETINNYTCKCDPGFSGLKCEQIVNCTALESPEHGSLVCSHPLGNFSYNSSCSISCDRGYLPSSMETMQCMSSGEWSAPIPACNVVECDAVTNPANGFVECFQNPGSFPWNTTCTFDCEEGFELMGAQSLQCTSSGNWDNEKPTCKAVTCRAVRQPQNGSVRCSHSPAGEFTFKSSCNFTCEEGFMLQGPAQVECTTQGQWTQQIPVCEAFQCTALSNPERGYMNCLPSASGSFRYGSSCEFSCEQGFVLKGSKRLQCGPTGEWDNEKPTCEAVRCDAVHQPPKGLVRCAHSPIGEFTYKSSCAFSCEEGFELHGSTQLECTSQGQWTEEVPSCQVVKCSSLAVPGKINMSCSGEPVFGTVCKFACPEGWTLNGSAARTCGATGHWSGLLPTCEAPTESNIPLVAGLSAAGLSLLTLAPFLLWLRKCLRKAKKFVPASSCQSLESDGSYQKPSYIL


Experiments:
[1] = molecular target: T1, chimeric protein comprising the …; assay: affinity precipitation from U937 membrane extracts; trace capture not excluded by the filing
[2] = molecular target: T2, P-selectin expressed on the surface of …; assay: plate coated with chimera; adhesion of 3H-labelled CHO:P-selectin cells (FIG. 14)
Protocol: (§1) Quantitative adhesion of CHO:P-selectin, CHO:E-selectin and CHO:L-selectin expressing cells was performed as described in Example 4(c), with the following modifications: COS cell and antibodies were omitted. Instead, 48-well microtiter plates (Costar) were coated for 16 hours at 4° C. with varying quantities of protein A-purified soluble PSGL-1/Fc chimeras. The unbound material was removed and the coated wells were treated with Hank's buffered saline (HBS) with 1 mg/ml BSA and 2 mM CaCl_2 for 1 hour at 4° C. Tritium labeled CHO selectin expressing cells were added and binding quantitated as described in Example 4(c).

[3] = molecular target: T3, E-selectin expressed on CHO cells …; assay: plate coated with chimera; adhesion of 3H-labelled CHO:E-selectin cells (FIG. 15)
Protocol: as §1

binding result [1]	binding result [2]	binding result [3]	Binder
no binding			CD43 (leukosialin) of U937 cells (other, human, UniProt P16150 20-400, looked up, native myeloid glycosylation) STTAVQTPTSGEPLVSTSEPLSSKMYTTSITSDPKADSTGDQTSALPPSTSINEGSPLWTSIGASTGSPLPEPTTYQEVSIKMSSVPQETPHATSHPAVPITANSLGSHTVTGGTITTNSPETSSRTSGAPVTTAASSLETSRGTSGPPLTMATVSLETSKGTSGPPVTMATDSLETSTGTTGPPVTMTTGSLEPSSGASGPQVSSVKLSTMMSPTTSTNASTVPFRNPDENSRGMLPVAVLVALLAVIVLVALLLLWRRRQKRRTGALVLSRGGKRNGVVDAWAGPAQVPEEGAVTVTVGGSGGDKGSGFPDGEGSSRRPTLTTFFGRRKSRQGSLAMEELKSGSGPSLKGEEEPLVASEDGAVDAPAPDEPEGGDGAAP
	no binding	binds	ΔY148.Fc, amino acids 42-189 of SEQ ID NO:2 with amino acids 46-52 deleted (Fc fusion, glycosylated, co-expressed with 3/4FT, also called pED.ΔY148.Fc product; not shown: NotI junction/linker of pED.Fc; Fc region of a human IgG1) QATEFLPETEPPEMLRNSTDTTPLTGPGTPESTTVEPAARRSTGLDAGGAVTELTTELANMGNLSTDSAAMEIQTTQPAATEAQTTPLAATEAQTTRLTATEAQTTPLAATEAQTTPPAATEAQTTQPTGLEAQTTAPAAM
